In paper PMC7809406, “Structure of a full-length bacterial polysaccharide co-polymerase” (Nature Communications, 2021):

Biological target: the molecule itself
Experiment: cryo-EM structure; single-particle analysis of SEC population 1 in DDM (25 mM TRIS pH 8.0, 100 mM NaCl, 3% glycerol, 0.5 mM TCEP, 0.02% DDM), 3.0 mg/mL; protomers to octamer; maps with C1 and C8 symmetry

| Protein | stoichiometry N |
| --- | --- |
| Full-length WzzB polysaccharide co-polymerase of E. coli (natural protein, E. coli K12, UniProt P76372 1-326, looked up, WzzB, polysaccharide co-polymerase (O-antigen chain length regulator), amplified from E. coli K12 genomic DNA; full-length gene; Integral membrane protein in a DDM micelle; The 8×His tag is non-cleavable (modified pWaldo vector); About 25% of the particles are dimers of the octamer; also called native protein; polysaccharide co-polymerase (PCP) Wzz; source: E. coli C41, membranes solubilized with …) MRVENNNVSGQNHDPEQIDLIDLLVQLWRGKMTIIISVIVAIALAIGYLAVAKEKWTSTAIITQPDVGQIAGYNNAMNVIYGQAAPKVSDLQETLIGRFSSAFSALAETLDNQEEREKLTIEPSVKNQQLPLTVSYVGQTAEGAQMKLAQYIQQVDDKVNQELEKDLKDNIALGRKNLQDSLRTQEVVAQEQKDLRIRQIQEALQYANQAQVTKPQIQQTGEDITQDTLFLLGSEALESMIKHEATRPLVFSPNYYQTRQNLLDIESLKVDDLDIHAYRYVMKPMLPIRRDSPKKAITLILAVLLGGMVGAGIVLGRNALRNYNAK | 8 |
| N-terminal truncated WzzB, missing residues 1-15 (truncated E16M variant) (domain or fragment, E. coli K12, UniProt P76372 16-326, looked up, WzzB of E. coli K12 missing the first 15 amino acids; a start codon was introduced at position 16 (E16M); Same vector and non-cleavable C-terminal 8×His tag as m1; Virtually all particles are dimers of octamers; also called N-terminally truncated WzzB; N-terminally truncated variant; source: E. coli C41, membranes solubilized with 1% DDM, purified (Ni-NTA, Superdex 200 SEC); not shown: 8×His, …) MQIDLIDLLVQLWRGKMTIIISVIVAIALAIGYLAVAKEKWTSTAIITQPDVGQIAGYNNAMNVIYGQAAPKVSDLQETLIGRFSSAFSALAETLDNQEEREKLTIEPSVKNQQLPLTVSYVGQTAEGAQMKLAQYIQQVDDKVNQELEKDLKDNIALGRKNLQDSLRTQEVVAQEQKDLRIRQIQEALQYANQAQVTKPQIQQTGEDITQDTLFLLGSEALESMIKHEATRPLVFSPNYYQTRQNLLDIESLKVDDLDIHAYRYVMKPMLPIRRDSPKKAITLILAVLLGGMVGAGIVLGRNALRNYNAK | 8 |
